In doi:10.1101/2021.01.12.426394:
One block for each binder: values may come before it. Where no end group is shown, it is not given here.

Assays:
[1] = biological target: honeybee tachykinin-related peptide receptor, FLAG-TRPR expressed in HEK293 cells (Apis mellifera); assay: competitive binding of a fluorescent ligand on cells
[2] = biological target: honeybee tachykinin-related peptide receptor, FLAG-TRPR expressed in Sf21 cells (Apis mellifera); assay: as above

- IC50 [1]: 2.34 nM
- IC50 [2]: 8.76 nM
B1: tachykinin-related peptide 2 (TRP2), unlabeled (peptide)
peptide: ALMGFQGVR-NH2

- IC50 [1]: 6.29 nM
- IC50 [2]: 34.9 nM
B2: tachykinin-related peptide 3 (TRP3), unlabeled (peptide)
peptide: APMGFQGMR-NH2
